From article PMC8191756

What was measured:
[1] = target: UBC9 (UniProt P63279); experiment: co-IP, Strep-ALKBH5 with Flag-UBC9; conditions: reference: wild type
[2] = target: SENP1 (UniProt Q9P0U3); experiment: co-IP; conditions: reference: wild type

binding against the reference ([1]; sites S87) | binding against the reference ([2]; sites S87) | binding against the reference ([1]; sites S325) | binding against the reference ([2]; sites S325) | Substance
weaker | stronger | – | – | ALKBH5 (from UniProt Q6P6C2) S87A
– | – | weaker | stronger | ALKBH5 (from UniProt Q6P6C2) S325A
